Data reported in paper PMC6138665.

Assays:
[1] = target: LC3B (UniProt Q9GZQ8); assay: co-immunoprecipitation of Myc-AMBRA1, LC3 blot; settings: reference: Myc-AMBRA1 wild type; sites S1014
[2] = target: GABARAP-L1 (UniProt Q9H0R8); assay: ITC, peptide titrated into GABARAP-L1; settings: reference: unphosphorylated peptide P0; sites S1014
[3] = target: GABARAP-L2 (UniProt P60520); assay: ITC, peptide titrated into GABARAP-L2; settings: reference: unphosphorylated peptide P0; sites S1014
[4] = target: LC3C (UniProt Q9BXW4); assay: ITC, peptide titrated into LC3C; settings: reference: unphosphorylated peptide P0; sites S1014
[5] = target: LC3A (UniProt Q9H492); assay: ITC, peptide titrated into LC3A; settings: reference: unphosphorylated peptide P0; sites S1014
[6] = target: LC3B (UniProt Q9GZQ8); assay: NMR HSQC titration of 15N-LC3B; settings: reference: unphosphorylated peptide P0; sites S1014

Chain of GABARAP-L1 (Q9H0R8 whole entry, looked up): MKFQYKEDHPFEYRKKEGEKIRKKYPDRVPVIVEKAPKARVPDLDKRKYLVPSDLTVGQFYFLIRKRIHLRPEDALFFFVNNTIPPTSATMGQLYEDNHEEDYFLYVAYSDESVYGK
Chain of GABARAP-L2 (P60520 whole entry, looked up): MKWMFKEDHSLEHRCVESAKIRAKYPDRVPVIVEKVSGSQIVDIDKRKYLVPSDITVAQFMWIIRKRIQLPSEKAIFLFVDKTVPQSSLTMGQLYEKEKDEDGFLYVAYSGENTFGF
Chain of LC3C (Q9BXW4 whole entry, looked up): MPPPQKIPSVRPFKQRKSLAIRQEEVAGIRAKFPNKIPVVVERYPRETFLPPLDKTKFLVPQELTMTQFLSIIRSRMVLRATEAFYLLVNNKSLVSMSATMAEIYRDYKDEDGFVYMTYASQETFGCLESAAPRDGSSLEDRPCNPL

How did the “binding against the reference” value [1] turn out when AMBRA1 (from UniProt Q9C0C7-3) S1014A was run?
Its value is “weaker”.

How did the “binding against the reference” value [2] turn out when “AMBRA1 AMBRA1-LIR (from UniProt Q9C0C7-3) pS1014 peptide P1” was run?
The value was “stronger”.

And the “binding against the reference” value [3]?
Its value is “stronger”.

What about the “binding against the reference” value [4] of the same substance?
The value was “stronger”.

And the “binding against the reference” value [5]?
The value was “stronger”.

And the “binding against the reference” value [6]?
The value was “stronger”.
